Among the data in patent US20230051954A1 (published 2023) are EC50 values, retold here.

The target in experiment [1] is T1, recombinant human transferrin receptor 1 (human, UniProt P02786 89-760).
T1 construct: Recombinant protein used in ELISA and SPR; also called hTfR1; huTfR1
The experiment is described as follows: ELISA, DMPK oligo (ASO300) conjugate binding to hTfR1.

Experiment [2] concerns the target T1, recombinant human transferrin receptor 1. In words: ELISA, plate-coated human TfR1, Fab-ASO300 conjugate; printed as 'Conjugate binding affinity ELISA'. (In general: ELISA stands for enzyme-linked immunosorbent assay.)
For experiment [3], the target named is T2, cynomolgus monkey (Macaca fascicularis) transferrin receptor 1 (cynomolgus monkey (Macaca fascicularis), UniProt Q5RDH6 89-760 (Pongo abelii entry), limits assumed).
T2 construct: Recombinant protein used in ELISA and SPR; also called cTfR1; cyno TfR1
T2 chain: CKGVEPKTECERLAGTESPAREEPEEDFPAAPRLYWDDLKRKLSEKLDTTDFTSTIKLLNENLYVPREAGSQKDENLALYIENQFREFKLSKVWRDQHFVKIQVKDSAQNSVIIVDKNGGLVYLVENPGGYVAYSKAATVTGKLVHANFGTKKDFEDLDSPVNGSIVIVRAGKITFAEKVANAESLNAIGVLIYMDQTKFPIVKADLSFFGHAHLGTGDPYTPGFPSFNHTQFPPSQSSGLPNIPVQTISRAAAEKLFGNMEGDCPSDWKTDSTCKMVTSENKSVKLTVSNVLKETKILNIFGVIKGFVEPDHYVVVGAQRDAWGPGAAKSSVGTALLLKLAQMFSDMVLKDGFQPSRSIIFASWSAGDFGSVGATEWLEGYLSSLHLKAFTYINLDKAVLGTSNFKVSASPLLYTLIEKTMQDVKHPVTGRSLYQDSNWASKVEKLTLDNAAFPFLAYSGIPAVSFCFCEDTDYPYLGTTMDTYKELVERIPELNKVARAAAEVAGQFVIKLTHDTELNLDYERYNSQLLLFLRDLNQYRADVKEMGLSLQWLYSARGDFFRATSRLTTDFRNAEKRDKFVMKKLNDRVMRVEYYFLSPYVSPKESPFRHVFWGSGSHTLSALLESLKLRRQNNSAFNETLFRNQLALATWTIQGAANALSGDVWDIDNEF
The experiment is described as follows: ELISA, DMPK oligo (ASO300) conjugate binding to cyno TfR1.

In experiment [4] the target is T2, cynomolgus monkey (Macaca fascicularis) …. The experiment is described as follows: ELISA, plate-coated cyno TfR1, Fab-ASO300 conjugate; printed as 'Conjugate binding affinity ELISA'.

T1 sequence (P02786 89-760 limits assumed): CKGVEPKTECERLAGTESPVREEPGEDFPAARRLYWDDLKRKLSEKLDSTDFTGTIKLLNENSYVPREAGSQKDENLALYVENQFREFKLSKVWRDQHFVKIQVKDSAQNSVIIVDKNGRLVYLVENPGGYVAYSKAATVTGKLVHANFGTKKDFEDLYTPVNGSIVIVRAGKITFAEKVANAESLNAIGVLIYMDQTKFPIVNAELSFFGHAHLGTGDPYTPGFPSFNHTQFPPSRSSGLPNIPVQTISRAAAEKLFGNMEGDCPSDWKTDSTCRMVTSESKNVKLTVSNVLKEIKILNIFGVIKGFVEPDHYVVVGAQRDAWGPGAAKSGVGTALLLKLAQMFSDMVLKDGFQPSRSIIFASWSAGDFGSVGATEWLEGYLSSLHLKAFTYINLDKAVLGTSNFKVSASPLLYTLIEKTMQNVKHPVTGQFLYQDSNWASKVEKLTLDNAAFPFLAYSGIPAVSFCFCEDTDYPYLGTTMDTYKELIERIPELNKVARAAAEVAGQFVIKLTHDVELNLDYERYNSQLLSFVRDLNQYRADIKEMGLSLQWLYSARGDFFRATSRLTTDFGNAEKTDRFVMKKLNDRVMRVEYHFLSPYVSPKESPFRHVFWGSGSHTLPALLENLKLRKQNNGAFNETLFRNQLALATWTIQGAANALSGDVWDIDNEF

B1: 3M12 (VH3/Vk2) Fab conjugated to DMPK-targeting oligonucleotide ASO300 (Fab, V domains shown)
VH: QVQLQESGPGLVKPSQTLSLTCSVTGYSITSGYYWNWIRQPPGKGLEWMGYITFDGANNYNPSLKNRVSISRDTSKNQFSLKLSSVTAEDTATYYCTRSSYDYDVLDYWGQGTTVTVSS
VL: DIQMTQSPSSLSASVGDRVTITCRASQDISNFLNWYQQKPGQPVKLLIYYTSRLHSGVPSRFSGSGSGTDFTLTISSLQPEDFATYFCQQGHTLPYTFGQGTKLEIKR
notes: Fab covalently conjugated to antisense oligonucleotide ASO300 (linker of Formula (C)); also called 3M12 (VH3/Vk2) conjugate; DMPK oligo conjugate
As for B1, the EC50 in experiment [1] was found to be 1.14 nM; in experiment [2], 2.2 nM; in experiment [3], 2.26 nM; in experiment [4], 2.9 nM.

B2: 3M12 (VH4/Vk3) Fab conjugated to DMPK-targeting oligonucleotide ASO300 (Fab, V domains shown)
VH: QVQLQESGPGLVKPSQTLSLTCTVTGYSITSGYYWNWIRQPPGKGLEWIGYITFDGANNYNPSLKNRVSISRDTSKNQFSLKLSSVTAEDTATYYCTRSSYDYDVLDYWGQGTTVTVSS
VL: DIQMTQSPSSLSASVGDRVTITCRASQDISNFLNWYQQKPGQPVKLLIYYTSRLHSGVPSRFSGSGSGTDFTLTISSLQPEDFATYYCQQGHTLPYTFGQGTKLEIKR
notes: Fab covalently conjugated to ASO300; also called 3M12 (VH4/Vk3) conjugate; DMPK oligo conjugate
Consider B2, for which the EC50 in experiment [1] came out at 1.18 nM; in experiment [2], 1.7 nM; in experiment [3], 1.85 nM; in experiment [4], 2.1 nM.

B3: 5H12 (VH5-C33D/Vk4) Fab conjugated to DMPK-targeting oligonucleotide ASO300 (Fab, V domains shown)
VH: QVQLVQSGAEVKKPGASVKVSCKASGYSFTDYDINWVRQAPGQGLEWMGWIYPGSGNTRYSERFKGRVTITRDTSASTAYMELSSLRSEDTAVYYCAREDYYPYHGMDYWGQGTLVTVSS
VL: DIVMTQSPDSLAVSLGERATINCRASESVDGYDNSFMHWYQQKPGQPPKLLIFRASNLESGVPDRFSGSGSGTDFTLTISSLQAEDVAVYYCQQSSEDPWTFGQGTKLEIKR
notes: Fab covalently conjugated to ASO300; also called 5H12 (VH5-C33D/Vk4) conjugate
With B3, the EC50 came to 110 nM in experiment [1], 110 nM in experiment [2], 10.2 nM in experiment [3] and 10.2 nM in experiment [4].

B4: 5H12 (VH5-C33Y/Vk4) Fab conjugated to DMPK-targeting oligonucleotide ASO300 (Fab, V domains shown)
VH: QVQLVQSGAEVKKPGASVKVSCKASGYSFTDYYINWVRQAPGQGLEWMGWIYPGSGNTRYSERFKGRVTITRDTSASTAYMELSSLRSEDTAVYYCAREDYYPYHGMDYWGQGTLVTVSS
VL: DIVMTQSPDSLAVSLGERATINCRASESVDGYDNSFMHWYQQKPGQPPKLLIFRASNLESGVPDRFSGSGSGTDFTLTISSLQAEDVAVYYCQQSSEDPWTFGQGTKLEIKR
notes: Fab covalently conjugated to ASO300
In the case of B4, the EC50 was 13.9 nM in experiment [1], 23.7 nM in experiment [2] and 13.9 nM in experiment [3].

B5: 5H12 (VH5-C33Y/Vk3) Fab conjugated to DMPK-targeting oligonucleotide ASO300 (Fab, V domains shown)
VH: QVQLVQSGAEVKKPGASVKVSCKASGYSFTDYYINWVRQAPGQGLEWMGWIYPGSGNTRYSERFKGRVTITRDTSASTAYMELSSLRSEDTAVYYCAREDYYPYHGMDYWGQGTLVTVSS
VL: DIVLTQSPDSLAVSLGERATINCRASESVDGYDNSFMHWYQQKPGQPPKLLIFRASNLESGVPDRFSGSGSRTDFTLTISSLQAEDVAVYYCQQSSEDPWTFGQGTKLEIKR
notes: Fab covalently conjugated to ASO300; also called 5H12 (VH5-C33Y/Vk3) conjugate
As to B5, the EC50 in experiment [2] is 33.4 nM; in experiment [4], 2.3 nM.

B6: 3A4 (VH3-N54S/Vk4) Fab conjugated to DMPK-targeting oligonucleotide ASO300 (Fab, V domains shown)
VH: EVQLVQSGSELKKPGASVKVSCTASGFNIKDDYMYWVRQPPGKGLEWIGWIDPESGDTEYASKFQDRVTVTADTSTNTAYMELSSLRSEDTAVYYCTLWLRRGLDYWGQGTLVTVSS
VL: DIVMTQSPLSLPVTPGEPASISCRSSKSLLHSNGYTYLFWFQQRPGQSPRLLIYRMSNLASGVPDRFSGSGSGTDFTLKISRVEAEDVGVYYCMQHLEYPFTFGGGTKVEIKR
notes: Fab covalently conjugated to ASO300; also called 3A4 (VH3-N54S/Vk4) conjugate
For B6, the EC50 in experiment [1] is 2.71 nM; in experiment [2] it was 2.9 nM; in experiment [3] it was 4.1 nM; in experiment [4] it was 7.8 nM.

B7: 3A4 (VH3-N54T/Vk4) Fab conjugated to DMPK-targeting oligonucleotide ASO300 (Fab, V domains shown)
VH: EVQLVQSGSELKKPGASVKVSCTASGFNIKDDYMYWVRQPPGKGLEWIGWIDPETGDTEYASKFQDRVTVTADTSTNTAYMELSSLRSEDTAVYYCTLWLRRGLDYWGQGTLVTVSS
VL: DIVMTQSPLSLPVTPGEPASISCRSSKSLLHSNGYTYLFWFQQRPGQSPRLLIYRMSNLASGVPDRFSGSGSGTDFTLKISRVEAEDVGVYYCMQHLEYPFTFGGGTKVEIKR
notes: Fab covalently conjugated to ASO300; also called 3A4 (VH3-N54T/Vk4) conjugate
In the case of B7, the half-maximal effective concentration (EC50) in experiment [2] was determined as 2.8 nM; in experiment [3], 5.12 nM; in experiment [4], 4.7 nM.

B8: 3A4 (VH3/Vk4) Fab conjugated to DMPK-targeting oligonucleotide ASO300 (Fab, V domains shown)
VH: EVQLVQSGSELKKPGASVKVSCTASGFNIKDDYMYWVRQPPGKGLEWIGWIDPENGDTEYASKFQDRVTVTADTSTNTAYMELSSLRSEDTAVYYCTLWLRRGLDYWGQGTLVTVSS
VL: DIVMTQSPLSLPVTPGEPASISCRSSKSLLHSNGYTYLFWFQQRPGQSPRLLIYRMSNLASGVPDRFSGSGSGTDFTLKISRVEAEDVGVYYCMQHLEYPFTFGGGTKVEIKR
notes: Fab covalently conjugated to ASO300; also called 3A4 (VH3/Vk4) conjugate
In the case of B8, the EC50 in experiment [1] was determined as 2.84 nM; in experiment [2] it was 2.8 nM; in experiment [3], 7.59 nM; in experiment [4] it was 7.6 nM.

The EC50 is the concentration at which the effect is half-maximal.
